Biological target: SDDV major capsid protein, Flag-tagged (pFlag-N3-SDDV MCP) (scale drop disease virus (SDDV))

B1: TM-B polypeptide containing the binding site with SDDV-MCP in mfTfR1 (peptide)
peptide: ADLFRNQFALATWTIQGCANSLAGDIWSL
mortality of mandarin fish challenged with SDDV pre-incubated with TM-B, against the petB2M control (blocks m2 with m8): 40%

— publication PMC12363161
